Laboratory results as given in FireProtDB (doi:10.1016/j.jmb.2005.05.056).
Values joined by “and” are separate entries in the source; they are usually repeats but may differ in a detail not shown here. Identical values can stand only once.

B1: Small ribosomal subunit protein bS6, P23370 (parent)
chain: MRRYEVNIVLNPNLDQSQLALEKEIIQRALENYGARVEKVEELGLRRLAYPIAKDPQGYFLWYQVEMPEDRVNDLARELRIRDNVRRVMVVKSQEPFLANA

Variants of: B1
Conditions: Thermus thermophilus; pH 8; 25 °C; GdnHCl; Fluorescence; Tris-HCl 50 mM; reversible: No; structure 1RIS; whole UniProt chain shown

| Variant | ddG of mutation (higher = less stable) | denaturant m value | denaturant midpoint (higher = more stable) | unfolding free energy |
| --- | --- | --- | --- | --- |
| I8A | 2.9 kcal/mol and 4.4 kcal/mol | 2.78 kcal/mol/M and 2.44 kcal/mol/M and 2.83 kcal/mol/M | 1.82 M and 2.05 M and 2.35 M | 5.1 kcal/mol and 5 kcal/mol and 6.6 kcal/mol |
| Y33A | – | 2.83 kcal/mol/M and 3.26 kcal/mol/M and 2.34 kcal/mol/M | 3.05 M and 3.65 M and 3.82 M | 8.6 kcal/mol and 11.9 kcal/mol and 8.9 kcal/mol |
| V88A | 1.1 kcal/mol and 3 kcal/mol and 2 kcal/mol | 3.12 kcal/mol/M and 2.01 kcal/mol/M and 2.82 kcal/mol/M | 2.66 M and 2.9 M and 3.2 M | 8.3 kcal/mol and 6.5 kcal/mol and 9 kcal/mol |
| V65A | – | 2.61 kcal/mol/M and 2.77 kcal/mol/M and 2.84 kcal/mol/M | – | – |
| A35G | 0.6 kcal/mol and 0.7 kcal/mol | 2.91 kcal/mol/M and 2.95 kcal/mol/M | 3.03 M and 3.5 M | 8.8 kcal/mol and 10.3 kcal/mol |
| E22Q | – | – | – | 7.6 kcal/mol and 8.9 kcal/mol and 11.4 kcal/mol |
| V85A | 2.9 kcal/mol and 2.3 kcal/mol | 2.51 kcal/mol/M and 2.84 kcal/mol/M | 2.05 M and 2.54 M | 5.1 kcal/mol and 7.2 kcal/mol |
| L75A | 0.9 kcal/mol and 0.8 kcal/mol and 0.7 kcal/mol | 3.13 kcal/mol/M and 2.95 kcal/mol/M and 3.19 kcal/mol/M | 2.71 M and 2.95 M and 3.24 M | 8.5 kcal/mol and 8.7 kcal/mol and 10.3 kcal/mol |
| I26A | 2.8 kcal/mol and 3 kcal/mol and 3.2 kcal/mol | 2.47 kcal/mol/M and 2.61 kcal/mol/M and 2.62 kcal/mol/M | 2.09 M and 2.46 M and 2.97 M | 5.2 kcal/mol and 6.4 kcal/mol and 7.8 kcal/mol |
